Results published in patent US10704030B2, “P450-BM3 variants with improved activity” (Codexis, Inc., priority 2015, dated 2020).
Substitutions are numbered along the chain they refer to. In names and notes the source's numbering stands.

Assays:
Assay type in all cases: biochemical
[1] = Validation of generalist properties: oxidation of loratadine by lyophilized P450-BM3 variant, UPLC-MS; details: [Loratadine] = 1 mM; for TON: TON = [substrate]*% conversion/[P450]
Method in brief: (§1)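 Lyophilized lysate of E. coli-expressed P450-BM3 variant (stock standardized to 12 μM heme) was incubated 24 h at 30 °C with 1 or 2 mM substrate, 1.0 mM NADP+, 25 mM glucose, 0.5 mg/mL glucose dehydrogenase and 5% DMSO in 100 mM potassium phosphate. Acetonitrile-quenched samples were analyzed by UPLC-MS (positive ESI).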

[2] = Validation of generalist properties: oxidation of gefitinib by lyophilized P450-BM3 variant, UPLC-MS; details: [Gefitinib] = 1 mM; for TON: TON = [substrate]*% conversion/[P450]; for FIOPC (F12): fold improvement over parent MCYP-1.2-F12
Method in brief: as §1

[3] = Validation of generalist properties: oxidation of imatinib by lyophilized P450-BM3 variant, UPLC-MS; details: [Imatinib] = 1 mM; for TON: TON = [substrate]*% conversion/[P450]; for FIOPC (F12): fold improvement over parent MCYP-1.2-F12
Method in brief: as §1

[4] = Validation of generalist properties: oxidation of diclofenac by lyophilized P450-BM3 variant, UPLC-MS; details: [Diclofenac] = 1 mM; for TON: TON = [substrate]*% conversion/[P450]; for FIOPC (F12): fold improvement over parent MCYP-1.2-F12
Method in brief: as §1

B1: Variant 18: P450-BM3 variant of SEQ ID NO:16: K32R; C48S; Y52F; I95P; I176V; L216Y; D232H; E349K; M491A; N574T; E619D; D722S; A767T (protein)
chain: MTIKEMPQPKTFGELKNLPLLNTDKPVQALMRIADELGEIFKFEAPGSVTRFLSSQRLIKEACDESRFDKNLSQALKFARDFLGDGLVTSWTHEPNWKKAHNILLPSFSQQAMKGYHAMMVDIAVQLVQKWERLNADEHIEVSEDMTRLTLDTIGLCGFNYRFNSFYRDQPHPFIVSMVRALDEVMNKLQRANPDDPAYDENKRQCQEDIKVMNDYVDKIIADRKARGEQSHDLLTQMLNGKDPETGEPLDDGNISYQIITFLIAGHETTSGLLSFALYFLVKNPHVLQKVAEEAARVLVDPVPSYKQVKQLKYVGMVLNEALRLWPTAPAFSLYAKEDTVLGGEYPLKKGDEVMVLIPQLHRDKTIWGDDVEEFRPERFENPSAIPQHAFKPFGNGQRACIGQQFALHEATLVLGMMLKHFDFEDHTNYELDIKETLTLKPEGFVVKAKSKKIPLGGIPSPSTEQSAKKVRKKAENAHNTPLLVLYGSNAGTAEGTARDLADIAMSKGFAPQVATLDSHAGNLPREGAVLIVTASYNGHPPDNAKQFVDWLDQASADEVKGVRYSVFGCGDKTWATTYQKVPAFIDETLAAKGAENIADRGEADASDDFEGTYEEWRDHMWSDVAAYFNLDIENSEDNKSTLSLQFVDSAADMPLAKMHGAFSTNVVASKELQQPGSARSTRHLEIELPKEASYQEGDHLGVIPRNYEGIVNRVTARFGLSASQQIRLEAEEEKLAHLPLAKTVSVEELLQYVELQDPVTRTQLRTMAAKTVCPPHKVELEALLEKQAYKEQVLAKRLTMLELLEKYPACEMKFSEFIALLPSIRPRYYSISSSPRVDEKQASITVSVVSGEAWSGYGEYKGIASNYLAELQEGDTITCFISTPQSEFTLPKDPETPLIMVGPGTGVAPFRGFVQARKQLKEQGQSLGEAHLYFGCRSPHEDYLYQEELENAQSEGIITLHTAFSRMPNQPKTYVQHVMEQDGKKLIELLDQGAHFYICGDGSQMAPAVEATLMKSYADVHQVSEADARLWLQQLEEKGRYAKDVWAG
modifications: P450_BM3
notes: C48S; Y52F; I95P; I176V; L216Y; D232H; E349K; M491A; N574T; E619D; D722S; A767T
- % Conv. [1]: ++ (5.01-10.00)
- TON [1]: ‡‡‡ (5001-10000)
- FIOPC (F12) ([1]; fold improvement over parent MCYP-1.2-F12): * (0.0-3.0)
- % Conv. [2]: ++++ (15.01-20.00)
- TON [2]: ‡‡‡‡ (10000-50000)
- FIOPC (F12) [2]: **** (10.01-15.00)
- % Conv. [3]: +++ (10.01-15.00)
- TON [3]: ‡‡‡ (5001-10000)
- FIOPC (F12) [3]: ** (3.01-5.0)
- % Conv. [4]: ++++ (15.01-20.00)
- TON [4]: ‡‡‡‡ (10000-50000)
- FIOPC (F12) [4]: * (0.0-3.0)

B2: Variant 19: P450-BM3 variant of SEQ ID NO:16: C48S; Y52F; I95P; Q111R; I176V; L216Y; D232H; P347T; M491A; N574T; D722S (protein)
chain: B1 chain with R32K, Q111R, P347T, K349E, D619E, T767A
modifications: P450_BM3
notes: Y52F; I95P; Q111R; I176V; L216Y; D232H; P347T; M491A; N574T; D722S
- % Conv. [1]: +++ (10.01-15.00)
- TON [1]: ‡‡‡ (5001-10000)
- FIOPC (F02) ([1]; fold improvement over parent MCYP-P1.2-F02): * (0.0-3.0)
- % Conv. [2]: ++++ (15.01-20.00)
- TON [2]: ‡‡‡‡ (10000-50000)
- FIOPC (F12) [2]: **** (10.01-15.00)
- % Conv. [3]: +++ (10.01-15.00)
- TON [3]: ‡‡‡ (5001-10000)
- FIOPC (F12) [3]: ** (3.01-5.0)
- % Conv. [4]: ++++ (15.01-20.00)
- TON [4]: ‡‡‡‡ (10000-50000)
- FIOPC (F12) [4]: * (0.0-3.0)
